Test system: U1A N-terminal RRM
Assay: EMSA
Details: 10 mM Tris-HCl pH 7.4, 250 mM NaCl, 1 mM EDTA, 0.5% Triton X-100, 1 mg/mL tRNA, 25 pM RNA, at least 45 min, gel at 25 C (A6P, A6c1A and A6G of Table 3 omitted: …)

Substance: A1c1A SL2 RNA
- Kd (loop A1 to 1-deazaadenosine (c1A)): 0.7 nM

Substance: G4DAP SL2 RNA
- Kd (loop G4 to 2,6-diaminopurine (DAP)): 2000 nM

Substance: WT SL2 RNA
- Kd: 0.3 nM

Substance: G4I SL2 RNA
- Kd (loop G4 to inosine): 3 nM

Substance: A6DAP SL2 RNA
- Kd (loop A6 to 2,6-diaminopurine (DAP)): 110 nM

Substance: C10A SL2 RNA
- Kd: 0.6 nM

Substance: A1G/C10A SL2 RNA
- Kd: 1300 nM

Substance: G4dG SL2 RNA
- Kd (loop G4 to 2'-deoxyguanosine): 0.11 nM

Substance: A1DAP SL2 RNA
- Kd (loop A1 to 2,6-diaminopurine (DAP)): 40 nM

Substance: G4-2AP SL2 RNA
- Kd (loop G4 to 2-aminopurine): 4000 nM

Substance: A1I SL2 RNA
- Kd (loop A1 to inosine): 16 nM

Substance: A1P SL2 RNA
- Kd (loop A1 to purine (6-NH2 replaced by H)): 0.9 nM

Substance: A1G SL2 RNA
- Kd: 1400 nM

Substance: G4A SL2 RNA
- Kd: 11000 nM

Substance: A6-2AP SL2 RNA
- Kd (loop A6 to 2-aminopurine): 700 nM

Substance: A1-2AP SL2 RNA
- Kd (loop A1 to 2-aminopurine): 40 nM

Substance: G4c7dG SL2 RNA
- Kd (loop G4 to 7-deaza-2'-deoxyguanosine (c7dG)): 31 nM

Substance: A6I SL2 RNA
- Kd (loop A6 to inosine): 8000 nM

Reference: paper PMC2203988
